Test results published in US20110312897A1 (published 2011).
Where no end group is shown, it is not given here.

Experiments:
[1] = target: T1, cleaved H3 tail peptide (H3 22-37), methylated at K27 (not fully specified; also: K27 methylated, degree not given here, biotinylated, site not given here); assay: fluorescence anisotropy
T1 peptide: TKAARK(Me)SAPATGGVKK

[2] = target: T2, non-cleaved H3 tail peptide (H3 18-37), methylated at K27 (not fully specified; methylated K27 (degree of methylation shown only in FIG. 7C); biotinylated for the pull-down); assay: fluorescence anisotropy
T2 peptide: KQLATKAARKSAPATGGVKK

Kd [1]: 44 µM
Kd [2]: 14.5 µM
B1: chromodomain of mouse CBX7 (other)
chain: MELSAIGEQVFAVESIRKKRVRKGKVEYLVKWKGWPPKYSTWEPEEHILDPRLVMAYEEKEERDRASGYR
